# Residue numbers refer to the chain shown, from its start. Numbers in names are those of the source. Square brackets hold non-standard residues; d marks the D form. Ends that are not written are not given here. * marks the point of attachment. Myristoyl = CCCCCCCCCCCCCC(=O)*; pS = N[C@@H](COP(=O)(O)O)C(=O)O
# B1: F93A: GSK-3β mutant, F93 replaced by alanine (protein)
# chain: MSGRPRTTSFAESCKPVQQPSAFGSMKVSRDKDGSKVTTVVATPGQGPDRPQEVSYTDTKVIGNGSFGVVYQAKLCDSGELVAIKKVLQDKRAKNRELQIMRKLDHCNIVRLRYFFYSSGEKKDEVYLNLVLDYVPETVYRVARHYSRAKQTLPVIYVKLYMYQLFRSLAYIHSFGICHRDIKPQNLLLDPDTAVLKLCDFGSAKQLVRGEPNVSYICSRYYRAPELIFGATDYTSSIDVWSAGCVLAELLLGQPIFPGDSGVDQLVEIIKVLGTPTREQIREMNPNYTEFKFPQIKAHPWTKDSSGTGHFTSGVRVFRPRTPPEAIALCSRLLEYTPTARLTPLEACAHSFFDELRDPNVKLPNGRDTPALFNFTTQELSSNPPLATILIPPHARIQAAASTPTNATAASDANTGDRGQTNNAASASASNST
# modifications: GSK-3 beta, F93A mutant
# notes: GSK-3β mutant, F93 replaced by alanine
# B2: K91A: GSK-3β mutant, K91 replaced by alanine (protein)
# chain: B1 chain with K91A, A93F
# modifications: GSK-3 beta, K91A mutant
# notes: GSK-3β mutant, K91 replaced by alanine
# B3: R92A: GSK-3β mutant, R92 replaced by alanine (protein)
# chain: B1 chain with R92A, A93F
# modifications: GSK-3 beta, R92A mutant
# notes: GSK-3β mutant, R92 replaced by alanine
# B4: K94A: GSK-3β mutant, K94 replaced by alanine (protein)
# chain: B1 chain with A93F, K94A
# modifications: GSK-3 beta, K94A mutant
# notes: GSK-3β mutant, K94 replaced by alanine
# B5: D90A: GSK-3β mutant, D90 replaced by alanine (protein)
# chain: B1 chain with D90A, A93F
# modifications: GSK-3 beta, D90A mutant
# notes: GSK-3β mutant, D90 replaced by alanine
# How the values were obtained:
# [1] = system: GSK-3β mutants Q89A, N95A, R92A, K94A, F93Y and TM (91-93); experiment: In vitro kinase assay, inhibition of other GSK-3β mutants; assay type: biochemical, human; conditions: data not shown
# Description: (§1) HEK-293 cells were grown in Dulbecco's Modified Eagle's Medium (DMEM), supplemented with 10% fetal calf serum (FCS), 2 mM glutamine, 100 units/ml penicillin, and 100 μg/ml streptomycin. HEK-293 cells were transiently transfected with indicated constructs, using calcium phosphate method as described [Ilouz et al. (2006) supra]. Cells were lysed in ice-cold buffer G (20 mM Tris-HCl, pH 7.5, 10 mM β-glycerophosphate, 10% glycerol, 1 mM EGTA, 1 mM EDTA, 50 mM NaF, 5 mM sodium pyrophosphate, 0.5 mM orthovanadate, 1 mM benzamidine, 10 μg/ml leupeptin, 5 μg/ml aprotinin, 1 μg/ml pepstatin, and 0.5% Triton X100). Cell extracts were centrifuged for 30 minutes at 15,000×g. […]
# (§2) The GSK-3β proteins (WT or mutants) were incubated with indicated substrate in a reaction mixture (50 mM Tris-HCl, pH 7.3, 10 mM magnesium acetate, and 0.01% β-mercaptoethanol) together with 100 μM ^32P[γ-ATP] […] Reactions were stopped by spotting on p81 paper (Whatman) washed with phosphoric acid, and counted for radioactivity as previously described [Ilouz et al. (2006) supra]. In assays from cells overexpressing GSK-3 proteins, the activity of the endogenous GSK-3 that was determined in cells transfected with the pCMV4 vector was subtracted from the activity values obtained for WT and mutants. […]
# GSK-3β F93A mutant = target: T1, GSK-3β F93A mutant (Homo sapiens, UniProt P49841, F93A); experiment: In vitro kinase assay, inhibition of the F93A mutant; assay type: biochemical; conditions: FIGS. 2B, 2C
# T1 construct: made in house; host or cells: HEK-293 (transient transfection, pCMV4; partial purification on DE-52)
# Description: as §1, §2
# GSK-3β = GSK-3β (Homo sapiens, UniProt P49841)
# Chain of GSK-3β (P49841 1-433 isoform P49841-2): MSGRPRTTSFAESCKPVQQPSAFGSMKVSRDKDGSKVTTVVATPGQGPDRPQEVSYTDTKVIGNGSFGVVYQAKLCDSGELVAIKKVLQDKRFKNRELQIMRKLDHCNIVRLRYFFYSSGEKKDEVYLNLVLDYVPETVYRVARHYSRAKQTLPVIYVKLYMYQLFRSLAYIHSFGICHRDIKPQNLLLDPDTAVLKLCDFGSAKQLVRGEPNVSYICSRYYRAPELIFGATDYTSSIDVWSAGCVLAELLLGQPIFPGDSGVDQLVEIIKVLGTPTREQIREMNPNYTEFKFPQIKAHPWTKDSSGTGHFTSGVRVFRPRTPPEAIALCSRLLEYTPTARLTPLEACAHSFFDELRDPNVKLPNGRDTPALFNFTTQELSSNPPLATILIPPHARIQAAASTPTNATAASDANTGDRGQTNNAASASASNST
# Description: (§3) The GSK-3β proteins (WT or mutants) were incubated with indicated substrate in a reaction mixture (50 mM Tris-HCl, pH 7.3, 10 mM magnesium acetate, and 0.01% β-mercaptoethanol) together with 100 μM ^32P[γ-ATP] (0.5 μCi/assay) for 15 minutes. Reactions were stopped by spotting on p81 paper (Whatman) washed with phosphoric acid, and counted for radioactivity as previously described [Ilouz et al. (2006) supra]. In assays from cells overexpressing GSK-3 proteins, the activity of the endogenous GSK-3 that was determined in cells transfected with the pCMV4 vector was subtracted from the activity values obtained for WT and mutants.
# Purified GSK-3β was subjected to in vitro kinase assays using pIRS-1, p9CREB, and pGS-1 substrate in the presence or absence of L803-mts (100 μM).
# GSK-3 = experiment: Inhibition of cellular GSK-3 in SH-SY5Y cells (Western blot); assay type: cell-based, human; conditions: 20 or 40 μM, 5 hours, FIG. 8
# Description: In an additional assay, human neuroblastoma SH-SY5Y cells, were treated with L803-mts (as set forth in SEQ ID NO:5) or L803F-mts (as set forth in SEQ ID NO:12) (20 or 40 μM) for 5 hours. Cells were collected and lysed in ice-cold buffer G (20 mM Tris pH 7.5, 10 mM β-glycerophosphate, 10% glycerol, 1 mM EGTA, 1 mM EDTA, 50 mM NaF, 5 mM sodium pyrophosphate, 0.5 mM orthovanadate, 1 mM benzamidine, 5 μg/ml leupeptin, 25 μg/ml aprotinin, 5 μg/ml pepstatin, and 0.5% Triton X100). Equal amounts of proteins (30 μg) were subjected to gel electrophoresis, transferred to nitrocellulose membranes, and immunoblotted with the anti-β-catenin antibody or anti-phospho-HSF-1 antibody (heat shock factor-1)(ser 303). FIG. 8 presents the β-catenin levels and phosphorylation levels of HSF-1 (ser 303) as determined by Western blot analysis using specific antibodies, with non-treated cells indicated as control (Con).
# pIRS-1 = experiment: In vitro kinase assay of GSK-3β mutants with substrate pIRS-1; assay type: biochemical; conditions: mean ± SEM; WT set to 100%
# Description: (§4) HEK-293 cells were grown in Dulbecco's Modified Eagle's Medium (DMEM), supplemented with 10% fetal calf serum (FCS), 2 mM glutamine, 100 units/ml penicillin, and 100 μg/ml streptomycin. HEK-293 cells were transiently transfected with indicated constructs, using calcium phosphate method as described [Ilouz et al. (2006) supra]. Cells were lysed in ice-cold buffer G (20 mM Tris-HCl, pH 7.5, 10 mM β-glycerophosphate, 10% glycerol, 1 mM EGTA, 1 mM EDTA, 50 mM NaF, 5 mM sodium pyrophosphate, 0.5 mM orthovanadate, 1 mM benzamidine, 10 μg/ml leupeptin, 5 μg/ml aprotinin, 1 μg/ml pepstatin, and 0.5% Triton X100). Cell extracts were centrifuged for 30 minutes at 15,000×g. Supernatants were collected, and equal amounts of proteins were boiled with SDS sample buffer and subjected to gel electrophoresis (7.5-12% polyacrylamide gel), transferred to nitrocellulose membranes, and immunoblotted with indicated antibodies. For partial purification, cells were lysed in buffer H (20 mM Tris, pH 7.3, 1 mM EGTA, 1 mM EDTA, 1 mM orthovanadate, 25 μg/ml leupeptin, 25 μg/ml aprotinin, and 25 μg/ml pepstatin A, 500 nM microcystine LR, and 0.25% Triton X100). The lysates were centrifuged at 15,000×g. The resulting supernatants were passed through DE-52 (Whatman, Maidstone, England) mini-columns that were equilibrated with buffer H. GSK-3β proteins were eluted with the same buffer containing 0.02 M NaCl. Equal amounts of proteins were used for in vitro kinase assays.
# as §3
# (§5) The GSK-3β mutants were partially purified by ion exchange chromatography, and their abilities to phosphorylate peptide substrates were tested in in vitro kinase assays. The substrates were: pIRS-1, p9CREB, and pGS-1, phosphorylated peptides derived from the insulin receptor substrate-1 (IRS-1), cAMP responsive element binding protein (CREB), and glycogen synthase, respectively.
# p9CREB = experiment: In vitro kinase assay of GSK-3β mutants with substrate p9CREB; assay type: biochemical; conditions: mean ± SEM; WT set to 100%
# Description: as §4, §3, §5
# [2] = system: CREB (serine 129) and N'IRS-1 (serine 332); experiment: Phosphorylation of protein substrates in HEK-293 cells expressing GSK-3β WT or F93A; assay type: cell-based; conditions: forskolin or PMA treated, versus WT-GSK-3β, FIGS. 1E-H
# Description: The role of Phe93 in substrate binding by employing a cellular system and protein substrates (i.e., not peptides) was further explored. To this end, the WT-GSK-3β and F93A mutant were expressed in HEK-293 cells together with GSK-3 substrates CREB or N′IRS-1 (the N-terminal region of IRS-1). Because GSK-3 requires pre-phosphorylation of its substrates, the cells were treated with forskolin to enhance CREB phosphorylation via activation of cAMP dependent kinase (PKA), or with phorbol ester (PMA) to enhance N′IRS-1 phosphorylation via activation of protein kinase C (PKC).
# The phosphorylation of CREB at serine 129, and N′IRS-1 at serine 332 (both GSK-3 phosphorylation sites) was then examined.
# Thus, HEK293 cells were co-transfected with WT-GSK-3β or F93A plasmids together with construct coding for CREB. Cells were treated with forskolin (10 μM, 1 hour), and cell extracts were subjected to Western blot analysis using anti-phospho CREB (Ser 129/133) antibody, as presented in FIG. 1E. Expression levels of CREB and GSK-3 proteins are indicated. Results are means of three independent experiments ±SEM.
# A similar assay was conducted using N′IRS-1 cDNA construct instead of CREB, and cells were treated with PMA (100 nM, 30 minutes). Expression levels of N′IRS-1 and GSK-3β are indicated. Results are means of three independent experiments ±SEM.
# pGS-1 = experiment: In vitro kinase assay of GSK-3β mutants with substrate pGS-1; assay type: biochemical; conditions: mean ± SEM; WT set to 100%
# Description: as §4, §3, §5
Molecule,"Substrate phosphorylation (% of WT GSK-3β), pIRS-1 (pIRS-1)","Substrate phosphorylation (% of WT GSK-3β), p9CREB (p9CREB)","Substrate phosphorylation (% of WT GSK-3β), pGS-1 (pGS-1)",further results
KEAPPAPPQS(p)P (KEAPPAPPQ[pS]P) [L803],–,–,–,inhibition of other GSK-3β mutants [1]: inhibited all other mutants; inhibition of substrate phosphorylation by F93A (GSK-3β F93A mutant): did not inhibit
L803-mts: L803 in which myristic acid was attached to its N-terminal; cell permeable variant (Myristoyl-GKEAPPAPPQ[pS]P),–,–,–,"competition with substrates pIRS-1, p9CREB, pGS-1 (GSK-3β; purified GSK-3β, 100 μM, FIG. 2A): competes with various substrates; inhibition of other GSK-3β mutants [1]: inhibit all other mutants; inhibition of substrate phosphorylation by F93A (GSK-3β F93A mutant): did not inhibit"
Lys-Glu-Ala-Pro-Pro-Ala-Pro-Pro-Gln-phosphorylated Ser-Pro-Phe [L803F],–,–,–,"inhibition of substrate phosphorylation at increasing concentrations, compared to L803 (GSK-3β; FIG. 7): improved activity"
Myristic-Gly-Lys-Glu-Ala-Pro-Pro-Ala-Pro-Pro-Gln-phosphorylated Ser-Pro-Phe (Myristoyl-GKEAPPAPPQ[pS]PF) [L803F-mts],–,–,–,phosphorylation levels of HSF-1 (serine 303) (GSK-3): reduced the phosphorylation levels; β-catenin levels (GSK-3): elevation in β-catenin levels
B1,42 ± 13 % of WTGSK-3β,46 ± 2 % of WTGSK-3β,13 ± 7 % of WTGSK-3β,phosphorylation of CREB and N'IRS-1 in cells [2]: did not enhance the phosphorylation
B2,140 ± 18 % of WTGSK-3β,161 ± 5 % of WTGSK-3β,119 ± 5 % of WTGSK-3β,–
B3,60 ± 3 % of WTGSK-3β,49 ± 19 % of WTGSK-3β,41 ± 14 % of WTGSK-3β,–
B4,52 ± 19 % of WTGSK-3β,71 ± 4 % of WTGSK-3β,19 ± 14 % of WTGSK-3β,–
B5,88 ± 15 % of WTGSK-3β,92 ± 21 % of WTGSK-3β,83 ± 2 % of WTGSK-3β,–

# Reference: patent publication US9688719B2, “Glycogen synthase kinase-3 inhibitors” (Ramot at Tel-Aviv University Ltd., priority 2011, dated 2017)
